Test: yeast display, Sf9 membrane polyspecificity reagent, FACS + sequencing; frameworks hold sequencing errors
Summary of the method: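 Polyreactivity labels are assigned by the sorting gate from which each nanobody was recovered. The gates were low and high (top ~1%), set on anti-HA fluorescence for expression and streptavidin fluorescence for reagent binding. Before sorting, galactose-induced (36–48 hours) yeast display cells were stained for 1 hour at 4 °C with 10% biotinylated, detergent-solubilized Sf9 membrane reagent.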

Sequence: QVQLVESGGGLVQAGGSLRLSCAASGSIFVWNAMGWYRPAPGKERELVAAIRSDDDSTYYADSVKGRFTISRDNAKNTVYLQMNSLKPEDTAVITALVDSPTFSHVKPWDGGDYWGQGTQVTVSS
- polyreactivity (PSR sort gate): low polyreactivity

Sequence: QVQLVESGGGLVQAGGSLRLSCAASGSIFVWYAMGWYRQAPGKERELVAAITSSGGSTYYADSVKGRFTISRDYAKNTVYLQLNSLKPEDTAVYYCAKTPSRRGYYWGQGTQVTVSS
- polyreactivity (PSR sort gate): low polyreactivity

Sequence: QVQLVESGGGLVQAGGSLRLSCAASGSIFVWYAMGWYRQAPGKERELVAVISYGGDRTSYADSVKGRFTISRDNAKNTVYLQMNSLKPEDTAVYYCAARPFYRGYYYWGQGTQVTVSS
- polyreactivity (PSR sort gate): high polyreactivity

Sequence: QVQLVESGGGLVQAGGSLRLSCAASGSIFVWYDMGWYRQAPGKERELVATISLSGVSTYYADSVKGRFTISRDNAKNPVYLQLNSLKPEDTAVYYCAADFVEQGEDDYWGQGTQVTVSS
- polyreactivity (PSR sort gate): low polyreactivity

Sequence: QVQLVESGGGLVQAGGSLRLSCAASGSIFVYNAMGWYRQAPGKEMELVASITWSGGRTYYADSVKGRFTISRDHAKNTVYLQMNSLKPEDTAVYYCNKRQYSRTFRYGYWGQGTQVTLSS
- polyreactivity (PSR sort gate): high polyreactivity

Sequence: QVQLVESGGGLVQAGGSLRLSCAASGSIFVYNAMGWYRQAPGKERELVASITWSGGRTYYADSVKGRFTISRDNAKNTVYLQMNSLKPEDTAVYYCNVRQGGPTVTWEYDYWGQGTQVTVSS
- polyreactivity (PSR sort gate): high polyreactivity

Sequence: QVQLVESGGGLVQAGGSLRLSCAASGSIFVYNDMGGYRQAPGKERELVAGIDWSGDRTYADSVKGRFTISRDNAKNTVYLQMNSLKPEDTAVYYCIADEWRWDEILPYAVDYWGQGTQVTVSS
- polyreactivity (PSR sort gate): low polyreactivity

Sequence: QVQLVESGGGLVQAGGSLRLSCAASGSIFVYNDMGWYRQAPGKERELVAGIDWSGDRTYADSVKGRFTISRDNAKYTVYLQMNSLKPEDTAVYYCNAERYPYRLRARKLDYWGQGTQVTVSS
- polyreactivity (PSR sort gate): low polyreactivity

Sequence: QVQLVESGGGLVQAGGSLRLSCAASGSIFVYNVMGWYRQAPGKERELVAAISKTAGRTYYEDSVKGRFTISRDNAKNTVYLQMNSLKPEDTAVYYFAVGNKRDAYYQYSSYGYWGQGTQVTVSS
- polyreactivity (PSR sort gate): low polyreactivity

Sequence: QVQLVESGGGLVQAGGSLRLSCAASGSIFVYYAMGWYRPAPGKERELVASISRGGTSTYYADSVKGRFTISRDNAKNTVYFQMNSLKPEDTAVYYCAAQPYRTGTYDYWGQGTQVTVSS
- polyreactivity (PSR sort gate): low polyreactivity

Sequence: QVQLVESGGGLVQAGGSLRLSCAASGSIFVYYAMGWYRQAPGKDRELVAAITTSGGSTYYADSVKGRFTISRDNAKNTVYLQMNSLKPEDTAVYYCAAVLLAWYWSYSVPWAYDYWGQGTQVTVTS
- polyreactivity (PSR sort gate): low polyreactivity

Sequence: QVQLVESGGGLVQAGGSLRLSCAASGSIFVYYAMGWYRQAPGKERELVAAITETGGDTYYADSVKGRFTISRDNAKNTVYLQMNSLKPEDTAVYYCNTVRRSYWSWSTENSDYWGQGTQVTVSS
- polyreactivity (PSR sort gate): low polyreactivity

Sequence: QVQLVESGGGLVQAGGSLRLSCAASGSIFVYYAMGWYRQAPGKERELVASISESDGSTSYADSVKGRFTISRDNAKNTVYLQMNSLKPEDTAVYYCAADPYFFWYSPSFDYWGQGSQVTVSS
- polyreactivity (PSR sort gate): low polyreactivity

Sequence: QVQLVESGGGLVQAGGSLRLSCAASGSIFVYYAMRWYRQAPGKERELVAAITIGASTDYADSVKGRFTISRDNAKNTVYLQMNSLKPEDTAVYYCAADLYYGDYRTLPKPDEYDYWGQGTQVTVSS
- polyreactivity (PSR sort gate): low polyreactivity

Sequence: QVQLVESGGGLVQAGGSLRLSCAASGSIFVYYTMGWYRQAPGKERELVAAISFSGGSTYADSVKGRFTISRDNAKNTVYLQMNSLKPEDTAVYFCNADRWLYTPSKFVEMDYWGQGTQVTVSS
- polyreactivity (PSR sort gate): low polyreactivity

Sequence: QVQLVESGGGLVQAGGSLRLSCAASGSIFWANAMGWYRQAPGKERELVAAISSSGGGTYYADSVKGRFTISRDNAKNTVYLQMNSLKPVDTAVYYCNKLRLDYYEQGDYWGQGSQVTVSS
- polyreactivity (PSR sort gate): high polyreactivity

Sequence: QVQLVESGGGLVQAGGSLRLSCAASGSIFWAYTMGWYRQAPGKERELVAAISASGGSTYYADSVKGRFTISRDNAKNTVYLQMNSLKPEDTAVYYCAAVYDLGYYGPIWAIVLDDYWGQGTQVTVSS
- polyreactivity (PSR sort gate): low polyreactivity

Sequence: QVQLVESGGGLVQAGGSLRLSCAASGSIFWGNAMGWYRQAPGKERELVAAIDWSGGSTYYADSVKGRFTISRDNAKNTVYLQMNSLKPEDTAVYYCAADYLGGGDVGFDYWGQGTQVTVSS
- polyreactivity (PSR sort gate): low polyreactivity

Sequence: QVQLVESGGGLVQAGGSLRLSCAASGSIFWGNAMGWYRQAPGKERELVAAITGSGGSSYYADSVKGRFTISRDNAKNRVYLLMNSVKPEDTAVYYCADLFRTFYYWGQGTQVTVSS
- polyreactivity (PSR sort gate): high polyreactivity

Sequence: QVQLVESGGGLVQAGGSLRLSCAASGSIFWGYAMGWYRQAPGKERELVATISWTGGSTYYADSVKGRFTISRDNAKNTVYLQMNSLKPEDTAVYYGAKVIIHYYYVVNLVDVDYWGQGTQVTVSS
- polyreactivity (PSR sort gate): low polyreactivity

Sequence: QVQLVESGGGLVQAGGSLRLSCAASGSIFWIYAMGWYRQAPGKERELVARITWTGGRTYYADSVKGRFTISRDNAKNTVYLQMNSLKPEDTAVYYCAVTSYRQRGAFDYWGQGSQVTVSS
- polyreactivity (PSR sort gate): high polyreactivity

Sequence: QVQLVESGGGLVQAGGSLRLSCAASGSIFWLYAMGWYRQAPGKERELVAAIDSGDSTKYADSVKGRFTISRDNAKNTVYLQMNSLKPEDTAVYYCNVRLGDRFFRHDYWGQGTQVTVSS
- polyreactivity (PSR sort gate): low polyreactivity

Sequence: QVQLVESGGGLVQAGGSLRLSCAASGSIFWLYAMGWYRQAPGKERELVAAMSWSGTSTNYADSVKGRFTISRDIAKNTVYLQMNRLKPEDTAVYYCAKRWNNQKLFGYEEEYDYWGQGTQVTGSS
- polyreactivity (PSR sort gate): low polyreactivity

Sequence: QVQLVESGGGLVQAGGSLRLSCAASGSIFWLYTMGWYRQAPGKERELVATITQSGSTYYADSVKGRFTISRDNAKNTVYLQMNSLKPEDTAVYYCAARVVWGPESDYWGQGTQVTVSS
- polyreactivity (PSR sort gate): low polyreactivity

Sequence: QVQLVESGGGLVQAGGSLRLSCAASGSIFWPNPMGGYRQAPGKERELVAGSTFSGGSTYADSVKGRFTISRDNAKNTVYLQMNSLKPEDTAVYYCAVVYYRDPRMDFWRQGTQVTVSS
- polyreactivity (PSR sort gate): high polyreactivity

Sequence: QVQLVESGGGLVQAGGSLRLSCAASGSIFWRNAMGWYRQAPGKERELVAAISRVGSTNYADSVKGRFTISRDNAKNTVYLQMNSLKPEDTAVYYCAADGTVVRDFDYWGQGTQVTVSS
- polyreactivity (PSR sort gate): low polyreactivity

Sequence: QVQLVESGGGLVQAGGSLRLSCAASGSIFWRNVMGWYRQAPGKERELVAAISSGGSTYYADSVKGRFTISRDNAKNTVYLQMNSLKPEDTAVYYCAAPRYDYWGQGTQVTVSS
- polyreactivity (PSR sort gate): high polyreactivity

Sequence: QVQLVESGGGLVQAGGSLRLSCAASGSIFWSYAMGWYRQAPGKERELVAAINWSGGRTYYADSVKGRFTISRDNAQNTVYLQMNSLKPEDTAVYYCNAPVHTAQGDEYDYWGQGTQVTVSS
- polyreactivity (PSR sort gate): high polyreactivity

Sequence: QVQLVESGGGLVQAGGSLRLSCAASGSIFWSYAMGWYRQAPGKERELVAVINWSGGSTYYADSVKGRFTISRDNAKNTVYLQMNSLKPEDTAVYYCNKDLGPTKRPFTFDYWGQGTQVTVSS
- polyreactivity (PSR sort gate): low polyreactivity

Sequence: QVQLVESGGGLVQAGGSLRLSCAASGSIFWSYAMGWYRQATGKERELVAAITWSGGNTYADSVKGRFTISRDNAKNTVYLQMNSLKPEDTAVYYCAADPAHGTKWYVYPSHDDYWGQGTQVTVSS
- polyreactivity (PSR sort gate): low polyreactivity

Sequence: QVQLVESGGGLVQAGGSLRLSCAASGSIFWTNAMGWYRQAPGKERELVARITYSGGSTYSADSVKGRFTISRDNAKNTVYLQMNSLKPEDTAVYYCNARTHGWPYSRYYYWGQGTQVTVSS
- polyreactivity (PSR sort gate): high polyreactivity

Sequence: QVQLVESGGGLVQAGGSLRLSCAASGSIFWWNAMGWYRQAPGKERELVASIGDSTYYADSVKGRFTISRDNAKNTVYLQMNSLKPEDTAVYYCYAEVLNYLVFGYQLGYDYWGQGTQVTVSS
- polyreactivity (PSR sort gate): low polyreactivity

Sequence: QVQLVESGGGLVQAGGSLRLSCAASGSIFWYNDMGWYRQAPGKEREFVAAITWDDGSTYYADSVKGRFTISRDNAKNTVYLQMNSLKPEDTAVYYCAAYVWYYDPASGWFITDYDYWGQGTQVTVSS
- polyreactivity (PSR sort gate): high polyreactivity

Sequence: QVQLVESGGGLVQAGGSLRLSCAASGSIFWYNTMGWYRPAPGKERELVAAISKSGTSTYYADSVKGRFTISRDNAKNTVYLQMNSLKPEDTAVYYCAAALPGYGDYYYWGQGTQVTVSS
- polyreactivity (PSR sort gate): high polyreactivity

Sequence: QVQLVESGGGLVQAGGSLRLSCAASGSIFWYNTMGWYRQAPGKERELVASISWDGGTYYADSVKGRFTISRDNAKNTVYLQMNSLKPEVTAVYYCNVAWYWGYDYWGQGTQVTVSS
- polyreactivity (PSR sort gate): low polyreactivity

Sequence: QVQLVESGGGLVQAGGSLRLSCAASGSIFWYYAMGWYRQAPGKERELVAAISASGSSTYYADSVKGRFTISRDNAKNTVYLQMNSLKPEDTAVYDCAATYSLYNDWLYHYFPEEYDYWGQGTQVTVSS
- polyreactivity (PSR sort gate): low polyreactivity

Sequence: QVQLVESGGGLVQAGGSLRLSCAASGSIFWYYAMGWYRQAPGKERELVAAISSGGSTYYADSVKGRYTISRDNAKNTVYLQMNSLKPEDTAVYYCAAGAFGQILNYWGQGTQVTVSS
- polyreactivity (PSR sort gate): high polyreactivity

Sequence: QVQLVESGGGLVQAGGSLRLSCAASGSIFYANAMGWYRQAPGKERELVAAISRSGGRTYYADSVKGRFTISRDNAKNTVYLQMNSLKPEDTAVYYCNAVYVSYTYQQTRSGGYDYWGQGTQVTVSS
- polyreactivity (PSR sort gate): high polyreactivity

Sequence: QVQLVESGGGLVQAGGSLRLSCAASGSIFYANVKGWSRQAPGKERELDATISISSSTNYADSVKGRFTISRDNAKNTVYLQMNSLKPEDTAVYYCNASFGHHYSYWVDTSYDYWGQGTQVTVSS
- polyreactivity (PSR sort gate): low polyreactivity

Sequence: QVQLVESGGGLVQAGGSLRLSCAASGSIFYAYAMGWYRQAPGKERELVAGINTRGGSTYYADSVKGRFTISRDNAKNTVYLQMNSLKPEDTAVYYCNARTLTVLEFDYWGQGTQVTVSS
- polyreactivity (PSR sort gate): low polyreactivity

Sequence: QVQLVESGGGLVQAGGSLRLSCAASGSIFYAYAMGWYRQAPGKERELVATITSGGSTNYADSVKGRFTISRDNAKNTVYLQMNSLKPEDTAVYYCAVDISYSLGGGFGYDYWGQGTQVTVSS
- polyreactivity (PSR sort gate): low polyreactivity

Sequence: QVQLVESGGGLVQAGGSLRLSCAASGSIFYAYYMGWYRQAPGKESELVAAINWSGDSTYYADSVKGRFTISRDNAKNTVYLQMNSLKPEDTAVYYCAAVSGSGDSGEYDYWGQGTQVTVSS
- polyreactivity (PSR sort gate): low polyreactivity

Sequence: QVQLVESGGGLVQAGGSLRLSCAASGSIFYDYALGWYRQAPGKERELVAAINSGDSTYYADSVKGRFTISRDNAKNTVYLQMNSLKPEDTAVYYCAATYFSPFIEYDYWGQGTQVTVSS
- polyreactivity (PSR sort gate): low polyreactivity

Reference: the nanobody polyreactivity screen of Harvey et al. (2022)
